Measurements: patent publication US9738880B2, “Lysosomal protein targeting sequence and therapeutic applications of same” (Children's Hospital Medical Center, priority 2013, dated 2017)
Entries after “also recorded” stand apart in the source; their conditions may differ. Values belong to the molecule of their own block, whether it stands above or below them.

What was measured:
ldLIMP2 [1] = target: T1, ldLIMP2 (Homo sapiens, UniProt Q14108); assay: Fluorescence polarization binding and competition of DDQRLLL GCase peptides to ldLIMP2; conditions: ldLIMP2 fixed at 1000 nM; FIG. 13
T1 construct: Purified luminal domain LIMP-2 (1d-LIMP2) was custom made (Sino Biological Inc., PRC.); purchased Sino Biological Inc
T1 sequence (Q14108 28-433 limits assumed): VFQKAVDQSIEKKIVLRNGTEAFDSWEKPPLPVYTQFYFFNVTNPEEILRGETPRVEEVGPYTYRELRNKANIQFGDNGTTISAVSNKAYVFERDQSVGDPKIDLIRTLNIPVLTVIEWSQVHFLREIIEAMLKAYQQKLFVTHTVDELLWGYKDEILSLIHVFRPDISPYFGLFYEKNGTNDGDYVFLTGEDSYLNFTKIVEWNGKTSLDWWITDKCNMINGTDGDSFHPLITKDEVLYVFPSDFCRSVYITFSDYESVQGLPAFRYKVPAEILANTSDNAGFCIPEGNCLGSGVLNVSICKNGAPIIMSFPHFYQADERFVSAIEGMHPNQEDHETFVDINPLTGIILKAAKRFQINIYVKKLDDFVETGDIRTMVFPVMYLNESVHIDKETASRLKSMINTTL
Protocol: FIG. 13A-FIG. 13B: Competition and binding of fluorescent labeled or unlabeled DDQRLLL (SEQ ID NO 14) GCase peptides to ldLIMP2. FIG. 13A depicts the δmP of the WT (DDQRLLL (SEQ ID NO 14)) or variously alanine substituted labeled peptides were plotted against the corresponding unlabeled peptide competitors. Note that the fixed ldLIMP2 concentration was 1000 nM or 20 times that used in similar studies (FIG. 7A-FIG. 7C). For all peptides the δmP were near or at background levels. FIG. 13B depicts the binding δmP for the various peptides as in FIG. 13A. The signals were near background levels for all peptides using concentrations 5 to 10 times that for DSPIIV (SEQ ID NO 15) and with a 20 times greater LIMP2 fixed concentration.
Fluorescence Polarization: The DSPIIV (SEQ ID NO 15) and its mutants, and DDQRLLL (SEQ ID NO 14) peptides (FITC labeled or non-labeled) were synthesized (American Peptide Co., Vista, Calif.). Lyophilized peptides were solubilized in acetonitrile and then were diluted at least 10,000-fold into the reactions for fluorescence polarization assessments. The reactions were done at least in duplicate at various peptide and LIMP-2 concentrations (SpectraMax M5, Molecular Device). Fluorescence polarization data were collected and analyzed with SoftMax Pro 5.0 software. Reaction mixtures contained 100 mM phosphate, pH 6.8 and 1 mM DTT.

GCase binding to ldLIMP2 = target: T2, GCase binding to ldLIMP2 (Homo sapiens, UniProt Q14108); assay: Competitive immunoprecipitation of GCase with ldLIMP2 at increasing molar ratios of peptide
T2 construct: Purified luminal domain LIMP-2 (1d-LIMP2) was custom made (Sino Biological Inc., PRC.); purchased Sino Biological Inc
T2 sequence (Q14108 28-433 limits assumed): T1 sequence (Q14108 28-433 limits assumed)
Protocol: FIG. 8A-FIG. 8C: Immunoprecipitation of GCase in the presence of ldLIMP2 and increasing molar ratios of the WT (DSPIIV (SEQ ID NO 15)) peptide. FIG. 8A depicts immunoprecipitation of GCase and LIMP-2. Purified WT GCase was preincubated with purified ldLIMP2 in a molar ratio of 1:1. Then, unlabeled DSPIIV (SEQ ID NO 15) was added in varying molar excesses (0 to 5×, top of figure) over GCase, incubated, and then immunoprecipitated with Protein G-coupled anti-LIMP-2 antibody beads. The beads were then eluted and the eluants were analyzed for GCase and ldLIMP2 on Western blots using the specified antibodies. […] In the bottom panel, ldLIMP2 recovery was the same at all peptide ratios. FIG. 8B depicts immunoprecipitation of GCase and LIMP-2. Purified ldLIMP2 was preincubated with unlabeled WT peptide at various molar ratios. Then, purified WT GCase was added in a 1:1 molar ratio with ldLIMP2, incubated, and then immunoprecipitated and processed as in FIG. 8A. […] FIG. 8C depicts immunoprecipitation of GCase and LIMP-2. Purified WT GCase was preincubated with purified ldLIMP2 in a molar ratio of 1:1. Then peptide DDQRLLL, a potential candidate for the GCase ligand for ldLIMP2, was added in varying molar excesses over WT GCase, incubated, and then immunoprecipitated and processed as in FIG. 8A. […] DDQRLLL (SEQ ID NO 14) is a dileucine peptide outside of the localized targeting region of DSPIIVDITKD (SEQ ID NO 3) (see FIG. 3).
FIG. 14A-FIG. 14B: Immunoprecipitation of GCase in the presence of ldLIMP2 and increasing molar ratios of the WT (DDQRLLL (SEQ ID NO 14)) peptide. In FIG. 14A or FIG. 14B, ldLIMP2 and DDQRLLL (SEQ ID NO 14) were incubated before (as shown in FIG. 14A) or together with (as shown in FIG. 14B) GCase and analyzed as in FIG. 8A-FIG. 8C.
Immunoprecipitation and Competition Studies: To further evaluate the interaction of ldLIMP-2, WT GCase, and the DSPIIV (SEQ ID NO 15) peptide, competitive immunoprecipitation experiments were conducted using increasing concentrations of the WT peptide in competition with GCase for binding (FIG. 8A). […]

ldLIMP2 [2] = target: T1, ldLIMP2; assay: Immunoprecipitation of alanine substituted GCases (TKD sequence) with ldLIMP2; type: binding; conditions: GCase:LIMP2 1:1; immunoblot; FIG. 6
Source text: FIG. 6A-6E: Immunoprecipitation of the alanine substituted GCases in the TKD sequence with ldLIMP2. In panels shown in FIG. 6A to FIG. 6D, the lanes 1 through 6 correspond to the band densities indicated by the bars in FIG. 6E. […] The quantitative results are shown in (FIG. 6E) in which 1, 2, 3, and 4 correspond to WT, AAA, AKA, and AKD, respectively.
Immunoprecipitation of GCases with mutations in the TKD sequence: For immunoblots, Gba1 knockout mouse fibroblasts (null/null) were transfected with the GBA1 constructs (WT or mutants) and expressed for 5 days. The GCases from harvested cell lysates were purified using a GCase antibody affinity column (Dynabeads protein G crosslinked (BS3) with rabbit anti-human GCase antibody). The purified GCases were then mixed with LIMP2 (1:1), incubated (30 min.), and applied to another affinity column (Dynabeads protein G crosslinked (BS3) with rabbit anti-LIMP2 antibody). Aliquots of each step (loading, wash and eluent) were collected and analyzed on 12.5% SDS gels. Immunoblots were developed using anti-human GCase antibody and AP conjugated color development kits. Mock experiments with either non-LIMP2 proteins added or no GCases added, were used as control. The quantitations of these immunoprecipitation data were obtained from densitometry measurements of the gels. The no-LIMP-2 bars are the controls for comparison, since GCase was processed through all steps without LIMP-2 to account for any losses of GCase; About 50% of the GCase was lost during processing.

[3] = system: Gba1 null/null mouse fibroblasts; assay: Immunofluorescence co-localization of expressed GCase constructs (lysosome vs ER/Golgi); type: cell-based
Source text: Immunofluorescence studies (IF): Mouse Gba1 null/null were used for the host cells for all transfection experiments. pCMV-AC-GFP Mammalian cell expression vector was used for expression of various GCases that included the TKD region (amino acids 407, 408 and 409) or the DSPIIV (SEQ ID NO 15) region (amino acids 399-404). Direct-labeled first antibodies were applied for IF detection; including anti-human GCase, -Calreticulin, -calnexin, -LIMP2, and -Lamp1. Lysotracker and ER tracker (Invitrogen) were also used as indicated. Analyses were done with a Zeiss AxioVert 200M with ApoTome. Co-localization analyses to obtain Pearson Indices were conducted using a module in the Axiovision 4.8 software.
Initial studies to localize the targeting peptide were conducted with GCase-GFP fusion constructs that had COOH-terminal deletions of GCase (FIG. 1). The constructs are designated as GCase-XX or XXX where the Xs represent the number of GCase amino acids deleted from the COOH-terminus. These constructs were transfected into and expressed in Gba1 null/null mouse fibroblasts using the CMV promoter (pCMV-AC-GFP or YFP) Immunofluorescence analyses using anti-human GCase IgG (green) and Lysotracker (Red) were used for colocalization of GCase to the lysosome (Red) or GCase (green) and Calreticulin or Calnexin (Red) for colocalization to the ER or Golgi (FIG. 2). […] Since LIMP-2 is the receptor for targeting of GCase to the lysosome, our working hypothesis was that the peptide sequence for binding of GCase to LIMP-2 was located within amino acids 347-422.

Gba1−/− fibroblasts = assay: GCase activity in media and cell lysates after transient transfection (secretion and retention); type: cell-based, mouse; conditions: media; FIG. 11A, 11B
Source text: FIG. 11A-FIG. 11C: Secretion and retention of GCase with alanine variants in the TDK (FIG. 11A) or DSPIIV (SEQ ID NO 15) (FIG. 11B and FIG. 11C) sequences. FIG. 11A depicts activities in the media of Gba1−/− fibroblasts following transient transfections of each of the specified alanine substituted GCases in the TDK region. […] FIG. 11B depicts in the Left Panel: Activities in the media following transient transfections of various DSPIIV (SEQ ID NO 15) alanine substituted GCases and the % of GCase secreted. The latter was calculated as {ng GCase (in media)/[ng GCase (in media)+ng (GCase in lysates)]}×100 (also see Table 2). […] The transfections alone (Null+lipo) had no effect. […] FIG. 11C deicts in cellular lysate GCase activities from the various alanine substituted GCases in the DSPIIV (SEQ ID NO 15) sequence as indicated. […] The doubly alanine substituted GCase had little intracellular activity, i.e., nearly all the GCase was secreted into the media.
(§1) Enzyme Assays: Cell pellets were homogenized in 0.25% Na-taurocholate and 0.25% Triton X-100. GCase activities were determined fluorometrically with 4 mM 4MU-Glc in 0.2M/0.1M citric-phosphate, pH 5.6 (18, 54)

[4] = CRIM specific activity of GCase variants (activity per cross-reacting immunological material); type: biochemical; conditions: FIG. 11A, 11B right panels
Protocol: as §1
Corresponding effects on the secretion of GCases from the cells containing various mutations in DSPIIVDITDK were found by assessing the activity of GCases in the media and cell lysate (FIG. 11 A-C). […] Using this assessment, the ratio of CRIM specific activities relative to WT (assigned 100%) for AAA, TAD, and AKA were 20%, 32%, and 49%, respectively (FIG. 11A, right panel), or that more GCase protein was required from the respective mutants to achieve the same enzyme activity as the WT. […] For the other mutants this ranged from 22-36%. This compares to ˜0% for the WT or D399E GCases Immunoaffinity anti-GCase column purification of the various GCases from media confirmed the excesses of these mutant GCases and the inability to detect WT or D399E GCases in media (data not shown).

- competition of bound GCase off ldLIMP2, in words (GCase binding to ldLIMP2; GCase preincubated with ldLIMP2 1:1, then peptide 0 to 5× molar excess): did not compete GCase off of ldLIMP2
Molecule: DDQRLLL (GCase di-leucine sequence)
- binding to ldLIMP2 (δmP), in words (ldLIMP2 [1]): lack of binding; also recorded: little or no binding
- competition with GCase for ldLIMP2 binding, in words (GCase binding to ldLIMP2; ldLIMP2, peptide and GCase incubated together, up to 5× molar excess): did not complete with GCase; also recorded: does not compete with GCase
- prevention of GCase binding to ldLIMP2, in words (GCase binding to ldLIMP2; peptide preincubated with ldLIMP2 before GCase was added, up to 5× molar): did not complete with GCase; also recorded: does not compete with GCase

- lysosomal localization of GCases with alanine substitutions in the TKD sequence, in words ([3]; FIG. 5): no lysosomal localization
B1: AAA: human GCase with triple alanine substitution of TKD (positions 407-409) (protein, listed as Homo sapiens)
chain: ARPCIPKSFGYSSVVCVCNATYCDSFDPPTFPALGTFSRYESTRSGRRMELSMGPIQANHTGTGLLLTLQPEQKFQKVKGFGGAMTDAAALNILALSPPAQNLLLKSYFSEEGIGYNIIRVPMASCDFSIRTYTYADTPDDFQLHNFSLPEEDTKLKIPLIHRALQLAQRPVSLLASPWTSPTWLKTNGAVNGKGSLKGQPGDIYHQTWARYFVKFLDAYAEHKLQFWAVTAENEPSAGLLSGYPFQCLGFTPEHQRDFIARDLGPTLANSTHHNVRLLMLDDQRLLLPHWAKVVLTDPEAAKYVHGIAVHWYLDFLAPAKATLGETHRLFPNTMLFASEACVGSKFWEQSVRLGSWDRGMQYSHSIITNLLYHVVGWTDWNLALNPEGGPNWVRNFVDSPIIVDIAAATFYKQPMFYHLGHFSKFIPEGSQRVGLVASQKNDLDAVALMHPDGSAVVVVLNRSSKDVPLTIKDPAVGFLETISPGYSIHTYLWRRQ
- binding of GCase variant to ldLIMP2, in words (ldLIMP2 [2]): essentially no binding; also recorded: did not bind
- co-localization to / retention in the ER/Golgi, in words ([3]; calnexin or calreticulin): majority of the enzymes co-localized to the ER/Golgi; also recorded: abundant colocalization to the ER
- GCase activity in the media / secretion, in words (Gba1−/− fibroblasts): the least
- CRIM specific activity relative to WT (assigned 100%) [4]: 20%
